Measured values published in the RNAGym collection of RNA variant scans (doi:10.1021/acssynbio.7b00057).

B1: Pistol ribozyme (parent)
chain: GGGUCGUUGUUCCAUAAUCGCGUGGAUAUGGCACGCAAGUUUCUACCGGGCACCGUAAAUGUCCGACUGGAGCCGUUCGGGCGGCUAUAAACAGACCUCAGGCCCGAAGCGUGGCGGCACCUGCCGCCGGUGGUAAAAAAGAUCGGAAGAGCACACGUCU

Variants of: B1
Test: aptazyme ON/OFF ratio, guanine; higher = stronger switching; co-transcriptional cleavage with and without guanine
For U7G U8G G9A U10A U11G C13G, the “aptazyme ON/OFF ratio” value was 1.16.
For U7G U8G G9A U10A U11G C13U, the “aptazyme ON/OFF ratio” value was 1.14.
For U7G U8G G9A U10A U11G C13A, the “aptazyme ON/OFF ratio” value was 1.09.
For U7G U8C U10G U11A C12A C13G, the “aptazyme ON/OFF ratio” value was 1.1.
For U7G U8C U10G U11A C12A C13A, the “aptazyme ON/OFF ratio” value was 1.11.
With U7G U8C U10G U11A C12A C13U the “aptazyme ON/OFF ratio” value was 1.12.
For U7G U8G G9A C12A C13A, the “aptazyme ON/OFF ratio” value was 1.32.
In the case of U7G U8G G9A C12A C13G, the “aptazyme ON/OFF ratio” value is reported as 1.11.
In the case of U7G U8G G9A C12A C13U, the “aptazyme ON/OFF ratio” value is reported as 1.49.
With U7G U8G G9A C12A the “aptazyme ON/OFF ratio” value was 1.41.
In the case of U7G U8G G9A C12G, the “aptazyme ON/OFF ratio” value is reported as 1.59.
With U7G U8G G9A C12U the “aptazyme ON/OFF ratio” value was 1.68.
In the case of U7G U8G G9A U10G U11C C12U C13U, the “aptazyme ON/OFF ratio” value is reported as 1.29.
In the case of U7G U8G G9A U10G U11C C12U C13A, the “aptazyme ON/OFF ratio” value is reported as 1.07.
For U7G U8G G9A U10G U11C C12U C13G, the “aptazyme ON/OFF ratio” value was 1.27.
With U7G U8G G9A U10G the “aptazyme ON/OFF ratio” value was 1.83.
In the case of U7G U8G G9A U10C, the “aptazyme ON/OFF ratio” value is reported as 3.59.
With U7G U8G G9A U10A the “aptazyme ON/OFF ratio” value was 2.16.
With U7G U8G G9A U10G U11A C12A C13G the “aptazyme ON/OFF ratio” value was 1.04.
In the case of U7G U8G G9A U10G U11A C12A C13U, the “aptazyme ON/OFF ratio” value is reported as 1.18.
With U7G U8G G9A U10G U11A C12A C13A the “aptazyme ON/OFF ratio” value was 1.12.
In the case of U7G U8G C12U, the “aptazyme ON/OFF ratio” value is reported as 1.21.
For U7G U8G C12A, the “aptazyme ON/OFF ratio” value was 1.25.
For U7G U8G C12G, the “aptazyme ON/OFF ratio” value was 1.38.
For U7G U8C U11A C12G, the “aptazyme ON/OFF ratio” value was 1.12.
For U7G U8C U11A C12A, the “aptazyme ON/OFF ratio” value was 1.37.
For U7G U8C U11A C12U, the “aptazyme ON/OFF ratio” value was 1.31.
With U7G U8C U11A C13U the “aptazyme ON/OFF ratio” value was 1.32.
For U7G U8C U11A C13A, the “aptazyme ON/OFF ratio” value was 1.14.
For U7G U8C U11A C13G, the “aptazyme ON/OFF ratio” value was 1.03.
For U7G U8C U10G U11A C12U C13A, the “aptazyme ON/OFF ratio” value was 1.13.
In the case of U7G U8C U10G U11A C12U C13U, the “aptazyme ON/OFF ratio” value is reported as 1.17.
With U7G U8C U10G U11A C12U C13G the “aptazyme ON/OFF ratio” value was 1.15.
With U7G U8C U10G U11A C12U the “aptazyme ON/OFF ratio” value was 1.22.
For U7G U8C U10G U11A C12G, the “aptazyme ON/OFF ratio” value was 1.13.
In the case of U7G U8C U10G U11A C12A, the “aptazyme ON/OFF ratio” value is reported as 1.15.
With U7G U8C U10G U11A C13G the “aptazyme ON/OFF ratio” value was 1.13.
With U7G U8C U10G U11A C13U the “aptazyme ON/OFF ratio” value was 1.19.
In the case of U7G U8C U10G U11A C13A, the “aptazyme ON/OFF ratio” value is reported as 1.16.
For U7G U8G G9A U10A U11G C12G, the “aptazyme ON/OFF ratio” value was 1.43.
For U7G U8G G9A U10A U11G C12U, the “aptazyme ON/OFF ratio” value was 1.22.
With U7G U8G G9A U10A U11G C12A the “aptazyme ON/OFF ratio” value was 1.07.
With U7G U8C U10G C12U the “aptazyme ON/OFF ratio” value was 1.36.
For U7G U8C U10G C12A, the “aptazyme ON/OFF ratio” value was 1.33.
For U7G U8C U10G C12G, the “aptazyme ON/OFF ratio” value was 1.05.
In the case of U7G U8G G9A U10G C12A C13U, the “aptazyme ON/OFF ratio” value is reported as 1.32.
In the case of U7G U8G G9A U10G C12A C13A, the “aptazyme ON/OFF ratio” value is reported as 1.1.
In the case of U7G U8G G9A U10G C12A C13G, the “aptazyme ON/OFF ratio” value is reported as 1.07.
With U7G U8G G9A U10A U11C C12G C13A the “aptazyme ON/OFF ratio” value was 1.13.
With U7G U8G G9A U10A U11C C12G C13U the “aptazyme ON/OFF ratio” value was 1.13.
For U7G U8G G9A U10A U11C C12G C13G, the “aptazyme ON/OFF ratio” value was 1.22.
For U7G U8G G9A U10A U11A C13G, the “aptazyme ON/OFF ratio” value was 1.14.
For U7G U8G G9A U10A U11A C13A, the “aptazyme ON/OFF ratio” value was 1.16.
In the case of U7G U8G G9A U10A U11A C13U, the “aptazyme ON/OFF ratio” value is reported as 1.18.
In the case of U7G U8G G9A U10C U11C C12U C13U, the “aptazyme ON/OFF ratio” value is reported as 1.13.
For U7G U8G G9A U10C U11C C12U C13A, the “aptazyme ON/OFF ratio” value was 1.04.
In the case of U7G U8G G9A U10C U11C C12U C13G, the “aptazyme ON/OFF ratio” value is reported as 1.36.
For U7G U8C U10G U11C C12A C13U, the “aptazyme ON/OFF ratio” value was 1.33.
For U7G U8C U10G U11C C12A C13A, the “aptazyme ON/OFF ratio” value was 1.38.
In the case of U7G U8C U10G U11C C12A C13G, the “aptazyme ON/OFF ratio” value is reported as 1.17.
With U7G U8G G9A U10A U11G C12A C13A the “aptazyme ON/OFF ratio” value was 1.13.
In the case of U7G U8G G9A U10A U11G C12A C13G, the “aptazyme ON/OFF ratio” value is reported as 1.03.
For U7G U8G G9A U10A U11G C12A C13U, the “aptazyme ON/OFF ratio” value was 1.1.
With U7G U8G G9A U10G U11A C12U C13U the “aptazyme ON/OFF ratio” value was 1.07.
With U7G U8G G9A U10G U11A C12U C13G the “aptazyme ON/OFF ratio” value was 1.21.
In the case of U7G U8G G9A U10G U11A C12U C13A, the “aptazyme ON/OFF ratio” value is reported as 1.15.
In the case of U7G U8G G9A U10C C13U, the “aptazyme ON/OFF ratio” value is reported as 1.59.
With U7G U8G G9A U10C C13G the “aptazyme ON/OFF ratio” value was 1.12.
For U7G U8G G9A U10C C13A, the “aptazyme ON/OFF ratio” value was 1.12.
For U7G U8G G9A U10A U11G, the “aptazyme ON/OFF ratio” value was 2.19.
In the case of U7G U8G G9A U10A U11A, the “aptazyme ON/OFF ratio” value is reported as 1.53.
In the case of U7G U8G G9A U10A U11C, the “aptazyme ON/OFF ratio” value is reported as 1.02.
With U7G U8G G9A U10C U11C C12A C13A the “aptazyme ON/OFF ratio” value was 1.19.
For U7G U8G G9A U10C U11C C12A C13G, the “aptazyme ON/OFF ratio” value was 1.2.
In the case of U7G U8G G9A U10C U11C C12A C13U, the “aptazyme ON/OFF ratio” value is reported as 1.11.
With U7G U8C U11C C12U the “aptazyme ON/OFF ratio” value was 1.57.
With U7G U8C U11C C12A the “aptazyme ON/OFF ratio” value was 1.69.
With U7G U8C U11C C12G the “aptazyme ON/OFF ratio” value was 1.38.
For U7G U8G G9A U10C U11A C12U C13A, the “aptazyme ON/OFF ratio” value was 1.06.
In the case of U7G U8G G9A U10C U11A C12U C13G, the “aptazyme ON/OFF ratio” value is reported as 1.08.
For U7G U8G G9A U10C U11A C12U C13U, the “aptazyme ON/OFF ratio” value was 1.08.
In the case of U7G U8G G9A U10C U11A C12U, the “aptazyme ON/OFF ratio” value is reported as 1.18.
With U7G U8G G9A U10C U11A C12G the “aptazyme ON/OFF ratio” value was 1.21.
In the case of U7G U8G G9A U10C U11A C12A, the “aptazyme ON/OFF ratio” value is reported as 1.34.
